This test has as its target FGF21 cell surface receptor composed of FGFR1c and β-Klotho (on the cells of the bioactivity assays) (UniProt P16092 22-822; Q99N32 1-1043, limits assumed). The test is described as follows: cell-based or functional assay.

Chain of FGF21 cell surface receptor composed of FGFR1c and β-Klotho (on the cells of the bioactivity assays) (P16092 22-822 limits assumed, chain 1 of 2): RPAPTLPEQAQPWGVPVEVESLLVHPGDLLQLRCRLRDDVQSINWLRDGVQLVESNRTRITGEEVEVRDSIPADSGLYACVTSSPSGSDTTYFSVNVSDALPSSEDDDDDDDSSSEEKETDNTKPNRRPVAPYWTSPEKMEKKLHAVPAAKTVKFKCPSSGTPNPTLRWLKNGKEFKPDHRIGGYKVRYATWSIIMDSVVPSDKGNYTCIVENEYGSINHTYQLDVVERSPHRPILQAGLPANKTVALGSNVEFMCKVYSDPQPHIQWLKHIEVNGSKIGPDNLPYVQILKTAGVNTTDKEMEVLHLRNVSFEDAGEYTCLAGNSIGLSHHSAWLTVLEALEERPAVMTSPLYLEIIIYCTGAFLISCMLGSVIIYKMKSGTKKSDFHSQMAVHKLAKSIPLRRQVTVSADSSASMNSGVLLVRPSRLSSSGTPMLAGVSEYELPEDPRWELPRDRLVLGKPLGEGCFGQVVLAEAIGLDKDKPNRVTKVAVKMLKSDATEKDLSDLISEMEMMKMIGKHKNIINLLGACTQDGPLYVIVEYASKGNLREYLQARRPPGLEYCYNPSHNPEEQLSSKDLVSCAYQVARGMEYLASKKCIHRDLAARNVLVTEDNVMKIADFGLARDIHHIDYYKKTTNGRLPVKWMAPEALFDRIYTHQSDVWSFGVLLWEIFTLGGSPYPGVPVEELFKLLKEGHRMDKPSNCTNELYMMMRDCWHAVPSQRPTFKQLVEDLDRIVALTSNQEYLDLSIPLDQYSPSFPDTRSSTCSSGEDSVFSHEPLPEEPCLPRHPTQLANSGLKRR
Chain of FGF21 cell surface receptor composed of FGFR1c and β-Klotho (on the cells of the bioactivity assays) (Q99N32 whole entry, chain 2 of 2): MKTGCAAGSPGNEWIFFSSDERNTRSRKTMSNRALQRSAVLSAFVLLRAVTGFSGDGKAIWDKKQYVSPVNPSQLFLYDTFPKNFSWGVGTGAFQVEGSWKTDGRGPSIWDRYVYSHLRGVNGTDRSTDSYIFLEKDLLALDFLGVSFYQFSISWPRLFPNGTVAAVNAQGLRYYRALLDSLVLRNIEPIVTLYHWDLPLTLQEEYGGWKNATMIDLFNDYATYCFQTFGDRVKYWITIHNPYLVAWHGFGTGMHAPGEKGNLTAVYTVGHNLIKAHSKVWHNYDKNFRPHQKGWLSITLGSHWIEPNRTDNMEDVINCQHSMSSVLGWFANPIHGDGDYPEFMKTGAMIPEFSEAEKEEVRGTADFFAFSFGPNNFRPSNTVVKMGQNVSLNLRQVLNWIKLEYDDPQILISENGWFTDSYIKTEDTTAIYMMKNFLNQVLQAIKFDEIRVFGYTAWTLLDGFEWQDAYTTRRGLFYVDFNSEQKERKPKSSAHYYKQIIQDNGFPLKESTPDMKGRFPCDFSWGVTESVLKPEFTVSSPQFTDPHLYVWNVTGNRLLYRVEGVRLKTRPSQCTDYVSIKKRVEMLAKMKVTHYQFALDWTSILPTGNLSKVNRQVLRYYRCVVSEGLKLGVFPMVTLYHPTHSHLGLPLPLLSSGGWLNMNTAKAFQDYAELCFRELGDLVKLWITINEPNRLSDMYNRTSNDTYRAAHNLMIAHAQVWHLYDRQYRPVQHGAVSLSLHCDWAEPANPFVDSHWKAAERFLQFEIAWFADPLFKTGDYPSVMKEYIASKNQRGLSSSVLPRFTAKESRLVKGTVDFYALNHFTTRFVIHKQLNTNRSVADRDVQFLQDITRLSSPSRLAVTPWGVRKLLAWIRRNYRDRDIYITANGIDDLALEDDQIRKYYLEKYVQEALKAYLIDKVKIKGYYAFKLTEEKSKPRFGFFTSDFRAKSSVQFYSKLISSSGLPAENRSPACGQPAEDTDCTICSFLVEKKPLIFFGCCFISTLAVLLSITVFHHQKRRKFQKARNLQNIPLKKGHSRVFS

B1: FGF21ΔH (ligand)
chain: PIPDSSPLLQFGGQVRQRYLYTDDAQQTEAHLEIREDGTVGGAADQSPESLLQLKALKPGVIQILGVKTSRFLCQRPDGALYGSLHFDPEACSFRELLLEDGYNVYQSEAHGLPLHLPGNKSPHRDPAPRGPARFLPLPGLPPAPPEPPGILAPQPPDVGSSDPLSMVGPSQGRSPSYAS
Consider B1, for which the “Glut1 Taqman unconjugated Protein EC50” value amounted to 2.3 nM.

The values above are taken from patent US20120282279A1 (COVX TECHNOLOGIES IRELAND, published 2012).
